The results in this text go back to publication PMC5594205 (Molecular Cell, 2017).

First the molecules themselves.
B1: recombinant human Rad51 (natural protein, UniProt Q06609 1-339, looked up)
chain: MAMQMQLEANADTSVEEESFGPQPISRLEQCGINANDVKKLEEAGFHTVEAVAYAPKKELINIKGISEAKADKILAEAAKLVPMGFTTATEFHQRRSEIIQITTGSKELDKLLQGGIETGSITEMFGEFRTGKTQICHTLAVTCQLPIDRGGGEGKAMYIDTEGTFRPERLLAVAERYGLSGSDVLDNVAYARAFNTDHQTQLLYQASAMMVESRYALLIVDSATALYRTDYSGRGELSARQMHLARFLRMLLRLADEFGVAVVITNQVVAQVDGAAMFAADPKKPIGGNIIAHASTTRLYLRKGRGETRICKIYDSPCLPEAEAMFAINADGVGDAKD
B2: His6-MBP-Polymerase α (1-109) (domain or fragment, human, UniProt P09884 1-109, looked up)
chain: MAPVHGDDSLSDSGSFVSSRARREKKSKKGRQEALERLKKAKAGEKYKYEVEDFTGVYEEVDEEQYSKLVQARQDDDWIVDDDGIGYVEDGREIFDDDLEDDALDADEK

Holding throughout (experiment): pull-down
For assay [1], the target named is B1.
Assay [2] deals with recombinant human Pol α-primase complex (full-length) (human, UniProt P09884 1-1462; Q14181 1-598; P49642 1-420; P49643 1-509).
In assay [3] the target is B1. This is another data set of the same source.

Read-outs that look alike come from different tables or passages of the source.

Sequence of recombinant human Pol α-primase complex (full-length) (Q14181 whole entry, chain 2 of 3): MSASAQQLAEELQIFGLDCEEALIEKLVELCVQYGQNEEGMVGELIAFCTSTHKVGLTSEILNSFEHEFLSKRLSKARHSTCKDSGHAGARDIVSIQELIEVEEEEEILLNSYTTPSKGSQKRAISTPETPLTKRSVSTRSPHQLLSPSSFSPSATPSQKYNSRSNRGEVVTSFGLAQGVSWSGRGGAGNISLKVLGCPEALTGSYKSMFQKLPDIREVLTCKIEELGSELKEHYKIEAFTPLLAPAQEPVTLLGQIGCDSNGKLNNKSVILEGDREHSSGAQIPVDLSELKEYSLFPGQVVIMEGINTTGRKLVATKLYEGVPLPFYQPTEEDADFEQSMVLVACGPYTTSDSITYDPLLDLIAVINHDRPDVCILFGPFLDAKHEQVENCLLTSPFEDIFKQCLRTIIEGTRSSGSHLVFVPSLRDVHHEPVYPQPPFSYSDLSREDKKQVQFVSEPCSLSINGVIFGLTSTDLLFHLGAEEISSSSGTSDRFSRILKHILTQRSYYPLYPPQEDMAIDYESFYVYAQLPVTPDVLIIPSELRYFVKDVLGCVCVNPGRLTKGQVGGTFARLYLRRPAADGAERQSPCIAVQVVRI
Sequence of recombinant human Pol α-primase complex (full-length) (P49642 whole entry, chain 3 of 3): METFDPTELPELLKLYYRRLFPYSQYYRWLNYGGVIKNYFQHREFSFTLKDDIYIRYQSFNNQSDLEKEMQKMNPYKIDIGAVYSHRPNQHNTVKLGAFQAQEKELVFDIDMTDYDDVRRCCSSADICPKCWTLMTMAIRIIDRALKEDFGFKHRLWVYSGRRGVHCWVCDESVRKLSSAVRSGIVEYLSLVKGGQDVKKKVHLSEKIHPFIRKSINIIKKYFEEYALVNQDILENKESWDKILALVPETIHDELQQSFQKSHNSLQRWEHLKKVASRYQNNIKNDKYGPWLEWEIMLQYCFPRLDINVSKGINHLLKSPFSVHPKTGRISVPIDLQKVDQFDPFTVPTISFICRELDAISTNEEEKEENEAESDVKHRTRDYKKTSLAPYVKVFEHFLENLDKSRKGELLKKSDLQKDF
Sequence of recombinant human Pol α-primase complex (full-length) (P49643 whole entry, chain 4 of 3): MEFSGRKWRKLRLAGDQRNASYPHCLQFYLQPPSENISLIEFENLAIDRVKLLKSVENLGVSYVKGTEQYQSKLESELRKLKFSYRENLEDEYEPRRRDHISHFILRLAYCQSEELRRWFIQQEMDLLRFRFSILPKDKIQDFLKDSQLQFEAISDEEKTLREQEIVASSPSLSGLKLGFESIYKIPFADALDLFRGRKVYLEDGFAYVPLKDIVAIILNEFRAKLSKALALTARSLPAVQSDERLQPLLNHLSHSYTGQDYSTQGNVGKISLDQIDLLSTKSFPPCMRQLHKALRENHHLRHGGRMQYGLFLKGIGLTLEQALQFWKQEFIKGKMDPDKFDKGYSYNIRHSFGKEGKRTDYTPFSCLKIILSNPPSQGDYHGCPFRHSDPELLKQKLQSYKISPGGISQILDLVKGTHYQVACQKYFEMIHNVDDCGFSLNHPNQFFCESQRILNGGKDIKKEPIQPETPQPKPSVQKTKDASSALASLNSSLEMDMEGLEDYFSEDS

Take LLGFHTASGKKVKIAKESLDKVKNLFDE [Brca2 BRC4 peptide]: the binding result with recombinant human Rad51 [1] was “binds”.
As for B1, the binding result in assay [2] is reported as “binds”.
As for B2, in the assay with recombinant human Rad51 [3], the binding result was “binds”.
